Our source for the Kd values is patent publication US20200362306A1 (published 2020).

The assay addresses T1, human mesothelin (human, UniProt Q13421 296-580, limits assumed).
T1 construct: also called MSLN
In words: method not stated; affinity given in parentheses for the binder.

T1 sequence (Q13421 other isoform, or with tags, fused parts or gaps limits assumed): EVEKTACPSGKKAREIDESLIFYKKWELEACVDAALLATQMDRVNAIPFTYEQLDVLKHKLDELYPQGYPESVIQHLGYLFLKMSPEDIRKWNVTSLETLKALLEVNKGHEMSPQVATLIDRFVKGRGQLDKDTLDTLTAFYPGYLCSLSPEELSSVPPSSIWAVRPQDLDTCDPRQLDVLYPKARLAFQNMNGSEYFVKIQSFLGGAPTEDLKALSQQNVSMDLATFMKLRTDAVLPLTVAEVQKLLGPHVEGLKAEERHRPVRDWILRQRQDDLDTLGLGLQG

B1: Single domain anti-MSLN binder 1 (SD1) (VHH)
VHH: EVQLVESGGGLVQPGGSLRLSCAASGGDWSANFMYWYRQAPGKQRELVARISGRGVVDYVESVKGRFTISRDNSKNTLYLQMNSLRAEDTAVYYCAVASYWGQGTLVTVSS
notes: also called anti-MSLN-SD1
For B1, the Kd came out at 25 nM.

B2: Single domain anti-MSLN binder 4 (SD4) (VHH)
VHH: EVQLVESGGGLVQPGGSLRLSCAASGSTSSINTMYWYRQAPGKERELVAFISSGGSTNVRDSVKGRFTISRDNSKNTLYLQMNSLRAEDTAVYYCNTYIPYGGTLHDFWGQGTLVTVSS
notes: also called anti-MSLN-SD4
For the molecule B2, the Kd was 6 nM.

The Kd is a measure of binding affinity in units of concentration.
